Experimental data published in article PMC3359404.

Key:
Experiment in all cases: purified protein
Details in all cases: 10 mM pyruvate, 0.3 mM NADPH, 150 mM PIPES pH 6.6, room temperature
[1] = tested on: N[C@@H](CCO)C(=O)O
[2] = tested on: N[C@@H](Cc1c[nH]cn1)C(=O)O
[3] = tested on: NC(=O)CC[C@H](N)C(=O)O
[4] = tested on: C[S+](C)CC[C@H](N)C(=O)O
[5] = tested on: N=C(N)NOCC[C@H](N)C(=O)O
[6] = tested on: N[C@@H](CCS)C(=O)O
[7] = tested on: N[C@@H](CS)C(=O)O
[8] = tested on: CSCC[C@H](N)C(=O)O
[9] = tested on: NCC(=O)O

## Ocs (His6-Ocs), octopine synthase (Agrobacterium tumefaciens (strain 15955))
[1]
  Km: 15 ± 3 mM
  kcat: 30 s⁻¹
  kcat/Km: 2000 M⁻¹ s⁻¹
[2]
  Km: 2.0 ± 0.21 mM
  kcat: 20 s⁻¹
  kcat/Km: 10000 M⁻¹ s⁻¹
[3]
  Km: 5.6 ± 0.6 mM
  kcat: 13 s⁻¹
  kcat/Km: 2330 M⁻¹ s⁻¹
[4]
  Km: 0.31 ± 0.04 mM
  kcat: 0.817 s⁻¹
  kcat/Km: 2670 M⁻¹ s⁻¹
[5]
  Km: 2.8 ± 0.5 mM
  kcat: 16.7 s⁻¹
  kcat/Km: 6000 M⁻¹ s⁻¹
[6]
  Km: 8.9 ± 1.1 mM
  kcat: 26.7 s⁻¹
  kcat/Km: 3000 M⁻¹ s⁻¹
[7]
  Km: 11 ± 3 mM
  kcat: 11.2 s⁻¹
  kcat/Km: 1020 M⁻¹ s⁻¹
[8]
  Km: 27 ± 6 mM
  kcat: 78.3 s⁻¹
  kcat/Km: 2830 M⁻¹ s⁻¹
[9]
  Km: 30 ± 6 mM
  kcat/Km: 717 M⁻¹ s⁻¹
